The values below come from patent US20250269047A1 (MABWELL SHANGHAI BIOSCIENCE, published 2025).

Where a chain is given by its changes, count along the chain named.

First the molecules themselves.
T1: recombinant human B7-H3-his extracellular domain protein (UniProtKB-Q5ZPR3, 1 aa-461 aa) (human, UniProt Q5ZPR3 29-461)
T1 construct: range 1-461; The printed range 1-461 starts at residue 1 and so includes the signal peptide; also called Human B7-H3 ECD; recombinant human B7-H3-his protein; not shown: C-terminal his tag
T1 sequence (looked up): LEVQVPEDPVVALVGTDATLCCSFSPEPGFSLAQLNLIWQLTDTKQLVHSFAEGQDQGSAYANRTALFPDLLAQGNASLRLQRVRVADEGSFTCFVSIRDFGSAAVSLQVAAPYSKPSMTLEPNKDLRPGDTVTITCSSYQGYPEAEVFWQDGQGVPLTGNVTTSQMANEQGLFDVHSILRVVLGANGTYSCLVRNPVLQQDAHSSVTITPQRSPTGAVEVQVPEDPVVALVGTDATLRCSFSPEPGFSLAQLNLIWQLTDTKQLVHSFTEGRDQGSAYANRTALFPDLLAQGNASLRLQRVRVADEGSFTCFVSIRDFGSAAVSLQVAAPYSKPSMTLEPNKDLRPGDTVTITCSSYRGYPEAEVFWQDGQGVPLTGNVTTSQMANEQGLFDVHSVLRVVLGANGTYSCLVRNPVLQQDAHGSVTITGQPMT

B1: hz10B4-8 (antibody, human IgG1, kappa)
heavy: not shown
light: DIQLTQSPSSLSASVGDRVTMTCSASSSVSYMHWYQQKPGKAPKLLIYDTSKLASGVPSRFSGSGSGTDFTLTISSLQPEDFATYYCQQWSSNPLTFGGGTKVEIKRTVAAPSVFIFPPSDEQLKSGTASVVCLLNNFYPREAKVQWKVDNALQSGNSQESVTEQDSKDSTYSLSSTLTLSKADYEKHKVYACEVTHQGLSSPVTKSFNRGEC
notes: hz10B4_VH4 + hz10B4_VL2; human IgG1, kappa
B2: hz10B4-1 (antibody, human IgG1, kappa)
heavy: not shown
light: B1 light with L4M
notes: hz10B4_VH1 + hz10B4_VL1; human IgG1, kappa
B3: hz10B4-14 (antibody, human IgG1, kappa, V domains shown)
VH: EVQLVQSGAEVKKPGASVKVSCKASGYTFTEYIMHWVRQAPGQGLEWMGGINPNQGGTTYNQKFKGRVTMTRDTSISTAYMELSRLRSEDTAVYYCARKGKDYFDWYFDVWGQGTTVTVSS
VL: DIQLTQSPSSLSASVGDRVTMTCSASSSVSYMHWYQQKPGKAPKLLIYDTSKLASGVPSRFSGSGSGTDFTLTISSLQPEDFATYYCQQWSSQPLTFGGGTKVEIKR
notes: hz10B4_VH4 + hz10B4_VL5; human IgG1, kappa
B4: hz10B4-3 (antibody, human IgG1, kappa)
heavy: not shown
light: B1 light with L4M
notes: hz10B4_VH3 + hz10B4_VL1; human IgG1, kappa
B5: hz10B4-9 (antibody, human IgG1, kappa, V domains shown)
VH: B3 VH with N54A, Q55S
VL: B3 VL with Q93A
notes: hz10B4_VH3 + hz10B4_VL3; human IgG1, kappa
B6: hz10B4-5 (antibody, human IgG1, kappa)
heavy: not shown
light: B1 light
notes: hz10B4_VH1 + hz10B4_VL2; human IgG1, kappa
B7: hz10B4-6 (antibody, human IgG1, kappa)
heavy: not shown
light: B1 light
notes: hz10B4_VH2 + hz10B4_VL2; human IgG1, kappa
B8: hz10B4-12 (antibody, human IgG1, kappa, V domains shown)
VH: B3 VH
VL: B3 VL with Q93A
notes: hz10B4_VH4 + hz10B4_VL3; human IgG1, kappa
B9: hz10B4-11 (antibody, human IgG1, kappa, V domains shown)
VH: B3 VH with N54A, Q55S
VL: B3 VL
notes: hz10B4_VH3 + hz10B4_VL5; human IgG1, kappa
B10: hz10B4-10 (antibody, human IgG1, kappa, V domains shown)
VH: B3 VH with N54A, Q55S
VL: B3 VL with S92A, Q93S
notes: hz10B4_VH3 + hz10B4_VL4; human IgG1, kappa
B11: hz10B4-13 (antibody, human IgG1, kappa, V domains shown)
VH: B3 VH
VL: B3 VL with S92A, Q93S
notes: hz10B4_VH4 + hz10B4_VL4; human IgG1, kappa
B12: hz10B4-4 (antibody, human IgG1, kappa)
heavy: not shown
light: B1 light with L4M
notes: hz10B4_VH4 + hz10B4_VL1; human IgG1, kappa
B13: hz10B4-2 (antibody, human IgG1, kappa)
heavy: not shown
light: B1 light with L4M
notes: hz10B4_VH2 + hz10B4_VL1; human IgG1, kappa
B14: hz9B11-1 (antibody, human IgG1, kappa)
heavy: not shown
light: EIVLTQSPGTLSLSPGERATLSCRASQSINNNLHWYQQKPGQAPRLLIYYASQSISGIPDRFSGSGSGTDFTLTISRLEPEDFAVYYCQQSHSWPYTFGQGTKLEIKRTVAAPSVFIFPPSDEQLKSGTASVVCLLNNFYPREAKVQWKVDNALQSGNSQESVTEQDSKDSTYSLSSTLTLSKADYEKHKVYACEVTHQGLSSPVTKSFNRGEC
notes: hz9B11_VH1 + hz9B11_VL1; human IgG1, kappa
B15: hz9B11-2 (antibody, human IgG1, kappa)
heavy: not shown
light: B14 light
notes: hz9B11_VH2 + hz9B11_VL1; human IgG1, kappa
B16: hz9B11-10 (antibody, human IgG1, kappa)
heavy: not shown
light: B14 light with Y49K, Y87F
notes: hz9B11_VH2 + hz9B11_VL5; human IgG1, kappa
B17: hz9B11-5 (antibody, human IgG1, kappa)
heavy: not shown
light: B14 light with Y49K
notes: hz9B11_VH1 + hz9B11_VL3; human IgG1, kappa
B18: hz9B11-9 (antibody, human IgG1, kappa)
heavy: not shown
light: B14 light with Y49K, Y87F
notes: hz9B11_VH1 + hz9B11_VL5; human IgG1, kappa
B19: hz9B11-7 (antibody, human IgG1, kappa)
heavy: not shown
light: B14 light with Y87F
notes: hz9B11_VH1 + hz9B11_VL4; human IgG1, kappa
B20: hz9B11-8 (antibody, human IgG1, kappa)
heavy: not shown
light: B14 light with Y87F
notes: hz9B11_VH2 + hz9B11_VL4; human IgG1, kappa
B21: hz17A3-5 (antibody, human IgG1, kappa, V domains shown)
VH: EVQLVQSGAEVKKPGASVKVSCKASGYTFTDYALHWVRQAPGQGLEWMGLINTYSSNTNYNQKFKDRVTMTRDTSISTAYMELSRLRSEDTAVYYCARGITAVVGTRYYAMDYWGQGTLVTVSS
VL: EIVLTQSPGTLSLSPGERATLSCRASQSISNNLHWYQQKPGQAPRLLIKYTSQNISGIPDRFSGSGSGTDFTLTISRLEPEDFAVYYCQQSYSWPLTFGGGTKVEIKR
notes: hz17A3_VH3 + hz17A3_VL3; human IgG1, kappa
B22: hz17A3-17 (antibody, human IgG1, kappa, V domains shown)
VH: B21 VH
VL: B21 VL with N31S, N54S
notes: hz17A3_VH3 + hz17A3_VL7; human IgG1, kappa
B23: hz17A3-9 (antibody, human IgG1, kappa, V domains shown)
VH: B21 VH with N52S
VL: B21 VL with K49Y, Y87F
notes: hz17A3_VH4 + hz17A3_VL4; human IgG1, kappa
B24: hz17A3-15 (antibody, human IgG1, kappa, V domains shown)
VH: B21 VH with N52S
VL: B21 VL with N54S
notes: hz17A3_VH4 + hz17A3_VL6; human IgG1, kappa
B25: hz17A3-1 (antibody, human IgG1, kappa, V domains shown)
VH: B21 VH with E1Q, E89D
VL: B21 VL with K49Y
notes: hz17A3_VH1 + hz17A3_VL1; human IgG1, kappa
B26: hz17A3-19 (antibody, human IgG1, kappa, V domains shown)
VH: B21 VH with N57S
VL: B21 VL with N31S, N54S
notes: hz17A3_VH5 + hz17A3_VL7; human IgG1, kappa
B27: hz17A3-13 (antibody, human IgG1, kappa, V domains shown)
VH: B21 VH with N57S
VL: B21 VL with N31S
notes: hz17A3_VH5 + hz17A3_VL5; human IgG1, kappa
B28: hz17A3-11 (antibody, human IgG1, kappa, V domains shown)
VH: B21 VH
VL: B21 VL with N31S
notes: hz17A3_VH3 + hz17A3_VL5; human IgG1, kappa
B29: hz17A3-16 (antibody, human IgG1, kappa, V domains shown)
VH: B21 VH with N57S
VL: B21 VL with N54S
notes: hz17A3_VH5 + hz17A3_VL6; human IgG1, kappa
B30: hz17A3-12 (antibody, human IgG1, kappa, V domains shown)
VH: B21 VH with N52S
VL: B21 VL with N31S
notes: hz17A3_VH4 + hz17A3_VL5; human IgG1, kappa
B31: hz17A3-10 (antibody, human IgG1, kappa, V domains shown)
VH: B21 VH with N57S
VL: B21 VL with K49Y, Y87F
notes: hz17A3_VH5 + hz17A3_VL4; human IgG1, kappa
B32: hz17A3-2 (antibody, human IgG1, kappa, V domains shown)
VH: B21 VH with E1Q, M48I, E89D
VL: B21 VL with K49Y
notes: hz17A3_VH2 + hz17A3_VL1; human IgG1, kappa
B33: hz17A3-6 (antibody, human IgG1, kappa, V domains shown)
VH: B21 VH with N52S
VL: B21 VL
notes: hz17A3_VH4 + hz17A3_VL3; human IgG1, kappa
B34: hz17A3-8 (antibody, human IgG1, kappa, V domains shown)
VH: B21 VH
VL: B21 VL with K49Y, Y87F
notes: hz17A3_VH3 + hz17A3_VL4; human IgG1, kappa
B35: hz17A3-7 (antibody, human IgG1, kappa, V domains shown)
VH: B21 VH with N57S
VL: B21 VL
notes: hz17A3_VH5 + hz17A3_VL3; human IgG1, kappa
B36: hz17A3-18 (antibody, human IgG1, kappa, V domains shown)
VH: B21 VH with N52S
VL: B21 VL with N31S, N54S
notes: hz17A3_VH4 + hz17A3_VL7; human IgG1, kappa

For this test, the target named is T1, recombinant human B7-H3-his …. In words: BLI (Octet QKe), antibody on AHC biosensor, B7-H3-his 60 nM in solution. As for the experimental part: According to the mutation designs, site-directed mutagenesis was performed in the plasmids expressing the humanized light chains and heavy chains respectively using StarMut gene Site-directed Mutagenesis Kit (Cat.: T111-01, GenStar). The mutated plasmids were transformed into E. coli cells for expansion, and plasmids expressing the humanized and mutated light and heavy chains based on the antibodies 9B11, 10B4, and 17A3 were obtained. […] 5-6 days after cell transfection, culture supernatants were purified through ProA affinity chromatography column to obtain different humanized antibodies. Affinities of the antibodies were determined by an assay including capturing Fc fragments of the antibodies with anti-human IgG Fc capture (AHC) biosensors using Octet QKe system instrument from Fortebio. For the assay, each of the humanized antibodies and the chimeric antibodies based on the antibodies 9B11, 10B4, and 17A3 was diluted to 4 μg/ml in PBS, and was allowed to flow through the surface of an AHC biosensor (Cat.: 18-0015, PALL) for 300 s. Recombinant human B7-H3-his protein (Accession No.: UniProtKB-Q5ZPR3, 1 aa-461 aa) was used as a mobile phase, and its concentration was 60 nM. The association time was 100 s and the dissociation time was 300 s. When the assay was finished, data from which the response values of blank control had been deducted were fitted to a 1:1 Langmuir binding model using software, and then kinetic constants for antigen-antibody binding were calculated. The light and heavy chain combinations and the affinity constant KD values of the humanized and the mutant antibodies based on the antibodies 9B11, 10B4, and 17A3 are shown in Tables 6-8 respectively.
Take B1: the Kd came out at 0.211 nM.
In the case of B2, the Kd is 0.827 nM.
On to B3, for which the Kd is 0.523 nM.
For the molecule B4, the Kd was found to be 0.341 nM.
B5: the Kd stood at 0.352 nM.
Regarding B6, the dissociation constant Kd worked out at 0.998 nM.
On to B7, for which the Kd came to 0.131 nM.
Under B8 stands 0.332 nM.
Turning to B9, the Kd was 0.422 nM.
Regarding B10, the Kd came to 0.381 nM.
For B11, the Kd was found to be 0.351 nM.
The result for B12 reads 0.501 nM; that for B13, 0.177 nM; that for B14, 4.52 nM.
As to B15, the equilibrium dissociation constant (Kd) stood at 6.28 nM.
Under B16 stands 0.139 nM; under B17, 0.121 nM.
Take B18: the Kd is 0.107 nM.
As for B19, the Kd was determined as 3.07 nM.
With B20, the Kd came out at 4.51 nM.
Regarding B21, the Kd came to 0.258 nM.
For B22, the Kd was determined as 0.0328 nM.
The result for B23 reads 0.431 nM; that for B24, 0.371 nM; that for B25, 0.541 nM.
For the molecule B26, the Kd was 0.411 nM.
On to B27, for which the Kd was 0.699 nM.
As to B28, the Kd stood at 0.299 nM.
With B29, the Kd amounted to 0.299 nM.
The result for B30 reads 0.573 nM.
Under B31 stands 0.401 nM; under B32, 0.771 nM.
As to B33, the Kd turned out to be 0.401 nM.
With B34, the Kd worked out at 0.462 nM.
The result for B35 reads 0.422 nM.
For the molecule B36, the Kd turned out to be 0.172 nM.
